Residue numbers refer to the chain shown, from its start. Numbers in names are those of the source.
B1: XAB4 (antibody, human IgG1, kappa, V domains shown)
VH: EVQLVESGGDLVQPGGSLRLSCAASGFTFSSYWMSWVRQAPGKGLEWVANIKQDGSEKYYVDSVKGRFTISRDNAKNSLYLQMNSLRAEDTAVYYCARDRGSLYYWGQGTLVTVSS
VL: AIQLTQSPSSLSASVGDRVTITCRPSQGINWELAWYQQKPGKAPKLLIYDASSLEQGVPSRFSGSGSGTDFTLTISSLQPEDFATYYCQQFNSYPLTFGGGTKVEIKR
notes: also called MB435 N56Q
B2: XAB1 (antibody, human IgG1, kappa, V domains shown)
VH: B1 VH
VL: B1 VL with N30I, W31S, E32A, Q56N
notes: human IgG1/kappa monoclonal antibody; also called parental XAB1; XAB1 IgG

What was measured:
[1] = target: T1, recombinant mouse IL-2 (R&D Systems 402-ML-020/CF) (mouse, UniProt P04351 21-169); assay: ELISA, coated cytokine;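 note: antibodies incubated 3 h at room temperature on cytokine-coated plates, binding read out with alkaline phosphatase-conjugated anti-species IgG secondary antibodies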
T1 construct: also called mIL-2
T1 sequence (looked up): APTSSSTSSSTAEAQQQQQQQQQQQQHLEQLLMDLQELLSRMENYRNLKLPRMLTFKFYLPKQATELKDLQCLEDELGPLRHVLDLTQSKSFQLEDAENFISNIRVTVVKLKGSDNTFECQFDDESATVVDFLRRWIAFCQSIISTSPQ

[2] = target: T2, recombinant human TGFβ2 (Novartis) (human, UniProt P61812 303-414); assay: ELISA, coated cytokine;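 note: antibodies incubated 3 h at room temperature on cytokine-coated plates, binding read out with alkaline phosphatase-conjugated anti-species IgG secondary antibodies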
T2 construct: also called huTGFβ2
T2 sequence (looked up): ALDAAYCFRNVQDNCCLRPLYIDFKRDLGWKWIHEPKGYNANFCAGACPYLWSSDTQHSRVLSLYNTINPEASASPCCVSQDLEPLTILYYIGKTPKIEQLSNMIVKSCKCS

[3] = target: T3, recombinant human IL-8 (R&D Systems Cat#208-IL-010/CF) (human, UniProt P10145 28-99); assay: ELISA, coated cytokine;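 note: antibodies incubated 3 h at room temperature on cytokine-coated plates, binding read out with alkaline phosphatase-conjugated anti-species IgG secondary antibodies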
T3 construct: also called huIL-8
T3 sequence (looked up): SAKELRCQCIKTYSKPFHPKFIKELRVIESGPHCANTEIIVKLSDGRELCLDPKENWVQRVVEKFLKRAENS

[4] = target: T4, recombinant human IL-20 (Novartis) (human, UniProt Q9NYY1 25-176, limits assumed); assay: ELISA, coated cytokine;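 note: antibodies incubated 3 h at room temperature on cytokine-coated plates, binding read out with alkaline phosphatase-conjugated anti-species IgG secondary antibodies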
T4 construct: also called huIL-20
T4 sequence (looked up): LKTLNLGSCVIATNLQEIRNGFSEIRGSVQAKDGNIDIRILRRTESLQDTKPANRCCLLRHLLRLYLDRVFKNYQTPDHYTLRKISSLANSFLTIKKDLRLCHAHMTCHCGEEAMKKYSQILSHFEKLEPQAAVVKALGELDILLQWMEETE

[5] = target: T5, recombinant human IL-4 (R&D Systems Cat#204-IL/CF) (human, UniProt P05112 25-153); assay: ELISA, coated cytokine
T5 construct: also called huIL-4
T5 sequence (looked up): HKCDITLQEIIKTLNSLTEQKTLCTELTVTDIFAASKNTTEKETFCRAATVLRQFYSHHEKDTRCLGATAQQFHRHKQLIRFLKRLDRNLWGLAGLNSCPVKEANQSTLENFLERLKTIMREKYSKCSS

[6] = target: T6, recombinant human IFNγ (Roche) (human, UniProt P01579 24-166, limits assumed); assay: ELISA, coated cytokine
T6 construct: also called huIFNγ
T6 sequence (looked up): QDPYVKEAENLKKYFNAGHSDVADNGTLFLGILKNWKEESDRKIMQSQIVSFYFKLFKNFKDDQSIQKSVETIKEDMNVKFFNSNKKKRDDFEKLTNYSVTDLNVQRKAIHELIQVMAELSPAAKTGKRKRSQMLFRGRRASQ

[7] = target: T7, recombinant rat IL-4 (R&D Systems Cat#504-RL/CF) (rat, UniProt P20096 25-147, limits assumed); assay: ELISA, coated cytokine
T7 sequence (looked up): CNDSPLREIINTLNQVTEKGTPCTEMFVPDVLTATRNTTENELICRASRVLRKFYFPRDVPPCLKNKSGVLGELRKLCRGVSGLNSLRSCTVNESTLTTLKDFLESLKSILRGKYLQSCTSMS

[8] = target: T8, recombinant human IL-13 (Novartis) (human, UniProt P35225 35-146, limits assumed); assay: ELISA, coated cytokine
T8 construct: also called huIL-13

[9] = target: T9, recombinant mouse IFN-γ (R&D Systems Cat#485-MT) (mouse, UniProt P01580 23-155); assay: ELISA, coated cytokine
T9 construct: also called mIFN-γ
T9 sequence (looked up): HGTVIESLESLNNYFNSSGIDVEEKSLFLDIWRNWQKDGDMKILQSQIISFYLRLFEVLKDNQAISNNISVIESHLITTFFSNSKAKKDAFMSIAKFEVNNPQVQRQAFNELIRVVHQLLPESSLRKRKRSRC

[10] = target: T10, recombinant human EGF (Sigma Cat#E9644) (human, UniProt P01133 971-1023); assay: ELISA, coated cytokine
T10 construct: also called huEGF

[11] = target: T11, recombinant mouse TNFα (R&D Systems Cat#410-MT) (mouse, UniProt P06804 80-235); assay: ELISA, coated cytokine
T11 construct: coated at 0.5 µg/ml; also called mTNFα
T11 sequence (looked up): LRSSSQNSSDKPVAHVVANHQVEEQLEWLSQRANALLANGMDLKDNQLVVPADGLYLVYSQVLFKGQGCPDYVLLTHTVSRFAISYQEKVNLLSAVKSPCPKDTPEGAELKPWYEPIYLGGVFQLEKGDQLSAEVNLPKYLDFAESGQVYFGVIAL

[12] = target: T12, recombinant mouse IL-23 (R&D Systems Cat#1887-ML) (mouse, UniProt Q9EQ14 22-196; P43432 23-335); assay: ELISA, coated cytokine
T12 construct: also called mIL-23
T12 sequence (looked up) 1: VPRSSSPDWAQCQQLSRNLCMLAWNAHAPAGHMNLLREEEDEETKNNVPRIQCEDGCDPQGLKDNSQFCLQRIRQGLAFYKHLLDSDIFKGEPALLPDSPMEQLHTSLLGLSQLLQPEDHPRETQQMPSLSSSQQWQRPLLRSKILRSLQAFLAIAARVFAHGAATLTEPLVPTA
T12 sequence (looked up) 2: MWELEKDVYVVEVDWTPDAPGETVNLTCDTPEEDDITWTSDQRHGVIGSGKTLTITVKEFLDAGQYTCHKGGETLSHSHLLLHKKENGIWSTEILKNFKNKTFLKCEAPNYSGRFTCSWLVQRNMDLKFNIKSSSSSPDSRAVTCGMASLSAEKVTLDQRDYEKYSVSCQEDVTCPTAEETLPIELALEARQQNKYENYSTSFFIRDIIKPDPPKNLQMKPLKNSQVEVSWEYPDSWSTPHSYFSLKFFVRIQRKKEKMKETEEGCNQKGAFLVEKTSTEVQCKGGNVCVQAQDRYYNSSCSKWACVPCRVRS

[13] = target: T13, recombinant human TNFα (Novartis) (human, UniProt P01375 77-233); assay: ELISA, coated cytokine
T13 construct: also called huTNFα

[14] = target: T14, recombinant mouse IL-17A (SEQ ID NO: 83) (mouse, UniProt Q62386 26-158); assay: cell-based or functional assay
T14 sequence: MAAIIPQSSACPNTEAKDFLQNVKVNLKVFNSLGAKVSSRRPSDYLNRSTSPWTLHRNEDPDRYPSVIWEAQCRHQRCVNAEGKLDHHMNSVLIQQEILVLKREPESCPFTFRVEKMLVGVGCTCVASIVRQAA

T13 sequence (P01375 77-233 limits assumed): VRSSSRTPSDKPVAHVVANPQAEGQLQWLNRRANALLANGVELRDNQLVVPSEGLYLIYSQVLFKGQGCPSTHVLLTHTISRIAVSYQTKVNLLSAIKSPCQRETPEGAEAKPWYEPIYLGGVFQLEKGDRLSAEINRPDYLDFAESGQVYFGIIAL
T8 sequence (P35225 35-146 limits assumed): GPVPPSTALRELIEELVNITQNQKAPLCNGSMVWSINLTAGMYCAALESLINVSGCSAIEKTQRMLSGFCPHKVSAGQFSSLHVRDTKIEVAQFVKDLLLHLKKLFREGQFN
T10 sequence (P01133 971-1023 limits assumed): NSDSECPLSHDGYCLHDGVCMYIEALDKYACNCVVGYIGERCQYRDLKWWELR

| Binder | binding result [1] | binding result [2] | binding result [3] | binding result [4] | binding result [5] | binding result [6] | binding result [7] | binding result [8] | binding result [9] | binding result [10] | binding result [11] | binding result [12] | binding result [13] | IC50, KC secretion by CMT-93 cells; stimulus mIL-17A (0.15 nM) [14] |
| --- | --- | --- | --- | --- | --- | --- | --- | --- | --- | --- | --- | --- | --- | --- |
| B1 | no binding (tested: 10 µg/ml) | no binding (tested: 10 µg/ml) | no binding (tested: 10 µg/ml) | no binding (tested: 10 µg/ml) | no binding (tested: 10 µg/ml) | no binding (tested: 10 µg/ml) | no binding (tested: 10 µg/ml) | no binding (tested: 10 µg/ml) | no binding (tested: 10 µg/ml) | no binding (tested: 10 µg/ml) | no binding (tested: 10 µg/ml) | no binding (tested: 10 µg/ml) | no binding (tested: 10 µg/ml) | 7 nM |
| B2 | no binding (tested: 10 µg/ml) | no binding (tested: 10 µg/ml) | no binding (tested: 10 µg/ml) | no binding (tested: 10 µg/ml) | no binding (tested: 10 µg/ml) | no binding (tested: 10 µg/ml) | no binding (tested: 10 µg/ml) | no binding (tested: 10 µg/ml) | no binding (tested: 10 µg/ml) | no binding (tested: 10 µg/ml) | no binding (tested: 10 µg/ml) | no binding (tested: 10 µg/ml) | no binding (tested: 10 µg/ml) | 128 nM |

From patent publication US20180194839A1 (Novartis, published 2018)
